Test results: the DeepSol protein solubility set

Test: soluble on expression in E. coli; label from the status in PepcDB or PDB records

| Sequence | soluble on expression in E. coli |
| --- | --- |
| VELPTEYTEQFSSQPTLNSKPIIKFEFTGNSVDAPVLSMASKKFGIDFSILMSQIDYAGGVKFGFVIAEVEGDGEAITAAKCYLINNNVKVEVLGYVG | not soluble |
| VFRQTFLEFSQRTVSQARLDIGRKKLQELSSTFARAENEFGVPAGVIAAFWAMETDFGAVQGDFNTRNALVTLSHDCRRPELFRPQLLALIEMVQHGDLDPATNTGAWAGEIGQVQMLPKDIIAFGVDGDGNGHINVKDSAPDAILTAAKFIQHLGFKKGEPWMQEVSVPENLPWEKSGLGGSLTAGDWFALGVTPRDGNKNFASLPAALIMPQGRKGPTFITYPNFNIYLEWNQSFIYTTSAAYFANRLMGAPVY | not soluble |
| VGGHEKVISLGFDASKGFHTYAFDWQPGYIKWYVDGVLKHTATANIPSTPGKIMMNLWNGTGVDDWLGSYNGANPLYAEYDWVKYTSNQTGGSFFEPFNSYNSGTWEKADGYSNGGVFNCTWRANNVNFTNDGKLKLGLTSSAYNKFDCAEYRSTNIYGYGLYEVSMKPAKNTGIVSSFFTYTGPAHGTQWDEIDIEFLGKDTTKVQFNYYTNG | soluble |
| VGPKTGEENQVLVPNLNPTPENLEVVGDGFKITSSINLVGEEEADENAVNALREFLTANNIEINSENDPNSTTLIIGEVDDDIPELDEALNGTTAENLKEEGYALVSNDGKIAIEGKDGDGTFYGVQTFKQLVKESNIPEVNITDYPTVSARGIVEGFYGTPWTHQDRLDQIKFYGENKLNTYIYAPKDDPYHREKWREPYPESEMQRMQELINASAENKVDFVFGISPGIDIRFDGDAGEEDFNHLITKAESLYDMGVRSFAIYWDDIQDKSAAKHAQVLNRFNEEFVKAKGDVKPLITVPTEYDTGAMVSNGQPRAYTRIFAETVDPSIEVMWTGPGVVTNEIPLSDAQLISGIYNRNMAVWWNYPVTDYFKGKLALGPMHGLDKGLNQYVDFFTVNPMEHAELSKISIHTAADYSWNMDNYDYDKAWNRAIDMLYGDLAEDMKVFANHSTRMDNKTWAKSGREDAPELRAKMDELWNKLSSKEDASALIEELYGEFARMEEACNNLKANLPEVALEECSRQLDELITLAQGDKASLDMIVAQLNEDTEAYESAKEIAQNKLNTALSSFAVISEKVAQSFIQEALSFDLTLINPRTVKITASSEETSGENAPASFASDGDMNTFWHSKWSSPAHEGPHHLTLELDNVYEINKVKYAPRQDSKNGRITGYKVSVSLDGENFTEVKTGTLEDNAAIKFIEFDSVDAKYVRLDVTDSVSDQANGRGKFATAAEVNVHG | soluble |
| VIHLDSKNFDSFLASHEIAVVDFWAEWCAPCLILAPIIEELAEDYPQVGFGKLNSDENPDIAARYGVMSLPTVIFFKDGEPVDEIIGAVPREEIEIRIKNLLGE | soluble |
| VKFIADPSGVDVLEEVEVFALGPTEVIVVGRLEFIYHEASDEYLEKFEGKLKKGVWYGTNIAVIFTLYRPAGSMEVDKIILDNTFEEIL | not soluble |
| VKNKKFTIIGGDLRSVKLAELIVAEGNKVNIYGFKNANFEIGIEESEDLDHAIGEADVIVGPTPCSTDNETINTPFHSQKIFIKDIFKKMNKSQLFIAGRITDKIAQLADVYNVYSVDLLEREEMAVLNAIPTAEGAIQIAMEEMPITLHGSNALILGFGRIGKILAKMLHGIGSNVYVEARKYSDLAWIESYGYKPVFITELESYIDRANVIFNTIPSIVLDENLLRKVNKDCLLIDLASKPGGIDFEKAKEMGLKTIWALSLPGKVAPVTAAKFIKDTISNIIDELGV | not soluble |
| VLSHCLETGFLTAYLALLVNFKPDVALKCGLYHDIGKADDENGKKNHTVTGAKIGDEFYFENDVKYTIANHHNKNVDNVYCRLTQIGDKLSAG | not soluble |
| VNKKDITYWEKRQERKYLAGEKKLDEYYKGLQKAFRQAKREIQSVINDFYMRYAKENKVSYAEAQKLLDKAEIGELQDFIDLVNKNMGKYNRKLNNMSIKARITRYQALEKQIDAILQQLYAIEYEYKGKELLKEVYEDSYYRTWFNIDQYHGFHQEFAQINPRTIEELIKYPWNGASFSDRIWKQKDHMLQVLKEDITTMLIQGKNPQTLARDFARRFKTKEYEAYRLLHTESSFIIEQGTLAAYKEDGVEKYQILATLDMRTSDICRSEDGKIYDVDEATVGVNYPPYHPFCRTTTVPYYEDAEVGTRVARDPVTGRSYEVPANMTYEQWKNRYIDQPDNIIRQEILSNPERLDNYSIQHYNKHKEGTKQYEQYKQSRLKKGQTEQSSLLISYDEAKEIIKKYAGTGVFSRDRKGKWRNEEFVDVDSIIGVVHNIDGTVTPTNRIQIKYGKNSVHIVPVLPRKERNK | soluble |
| VNKSQLIDKIAAGADISKAAAGRALDAIIASVTESLKEGDDVALVGFGTFAVKERAARTGRNPQTGKEITIAAAKVPSFRAGKALKDAVN | soluble |
| VPRIRKLVAALHRRGPHRVLRGDLAFAGLPGVVYTPEAGLHLPGVAFGHDWLTGTSRYSGLLEHLASWGIVAAAPDSERGLAPSVLNLAFDLGVALDIVAGVRLGPGKISVHPAKLGLVGHGFGGSAAVFAAAGLTGTHVKSVAAIFPTVTNPAAEQPAATLDVPGLILTAPGDPKTLTSNALGLSRAWDKATLRIVSKARAGGLVEGRRLTKVLGLPGPHRRTQRSVRALLTGYLLYTLGGDKTYRRFADPDLQLPKTDPIDPEAPPITPGEKIVTLLK | not soluble |
| VQRPWLAPLPGAPMNACRLLLCFPYGGGGASAFNDLSRLADVGVATWAVKLPGREDRSMEAPVTRVANVIEAIVDALQSVGIPYAFYGHSFGAGLALDVAHALAERDRPLPTHLVLSGRMPPHTGYSPLLGAMDDNQLWQHVCSESLLPLPTDASCSFARHALGKLKADLALNAQLTYRFIRPLPVPLYVLNGQDDPLLELHRLDEWQRYTSTSFHSEYVPGGHFFFNINFQLLYLPLLTALD | not soluble |
| VRMILDTIPKKNRHLVTTHDGYSYLGDAYGLSIAGFVSPNPSVEPSPRDIIALTRTLENLHVPAVFIEPQLALRANHLTVTADKLGIQVCRIYGDSLDDEVPTYLDFMKYNAHSLARCLGQSEGK | not soluble |
| VRTHEVVLHRIEQDLAAGKLTVGGRLPAERALAEELGVGRSSVREAMRVLEAMGIVRTAVGSGPDAGAIVAADPAASIGAAIRLHMATRTLPIHDVVQTRTLLESWAVQEAAGQAPDLDFSAIDTLLDAMDDEDLSPEAFHRLDADLHVAMAGLAGNVLVEAMMVSLRDSIHGYVMQAVPLLDDWPAVATHLRCEHRGIVAALRDGHGAEAAGLVREHIEGFYGRFAPVRG | not soluble |
| VSAHVATLHPEPPFALCGPRGTLIARGVRTRYCDVRAAQAALRSGTAPILLGALPFDVSRPAALMVPDGVLRARKLPDWPTGPLPKVRVAAALPPPADYLTRIGRARDLLAAFDGPLHKVVLARAVQLTADAPLDARVLLRRLVVADPTAYGYLVDLTSAGNDDTGAALVGASPELLVARSGNRVMCKPFAGSAPRAADPKLDAANAAALASSAKNRHEHQLVVDTMRVALEPLCEDLTIPAQPQLNRTAAVWHLCTAITGRLRNISTTAIDLALALHPTPAVGGVPTKAATELIAELEGDRGFYAGAVGWCDGRGDGHWVVSIRCAQLSADRRAALAHAGGGIVAESDPDDELEETTTKFATILTALGVEQ | not soluble |
| VSKRAAPFLYMITQRIEERGLPMELALLPVVESSFDAFAYSHGSAAGLWQFVPGTGKMMGLEQNYWYDGRRDVAASTDAALDYLVQLNERFDGNWEHAIAAYNSGGGRVSSAIRKNKKLGKPVDFFSLDLPKETSSYVPKLLALADVVANQEKYGIDIPSIPNKPVLT | not soluble |
| VTGPGSPPLAWTELERLVAAGDVDTVIVAFTDMQGRLAGKRISGRHFVDDIATRGVECCSYLLAVDVDLNTVPGYAMASWDTGYGDMVMTPDLSTLRLIPWLPGTALVIADLVWADGSEVAVSPRSILRRQLDRLKARGLVADVATELEFIVFDQPYRQAWASGYRGLTPASDYNIDYAILASSRMEPLLRDIRLGMAGAGLRFEAVKGECNMGQQEIGFRYDEALVTCDNHAIYKNGAKEIADQHGKSLTFMAKYDEREGNSCHIHVSLRGTDGSAVFADSNGPHGMSSMFRSFVAGQLATLREFTLCYAPTINSYKRFADSSFAPTALAWGLDNRTCALRVVGHGQNIRVECRVPGGDVNQYLAVAALIAGGLYGIERGLQLPEPCVGNAYQGADVERLPVTLADAAVLFEDSALVREAFGEDVVAHYLNNARVELAAFNAAVTDWERIRGFERL | not soluble |
| VTQPSGLKNLLRAAAGALPVVPRTDQLPNRTVTVEELPIDPANVAAYAAVTGLRYGNQVPLTYPFALTFPSVMSLVTGFDFPFAAMGAIHTENHITQYRPIAVTDAVGVRVRAENLREHRRGLLVDLVTNVSVGNDVAWHQVTTFLHQQRTSLSGEPKPPPQKKPKLPPPAAVLRITPAKIRRYAAVGGDHNPIHTNPIAAKLFGFPTVIAHGMFTAAAVLANIEARFPDAVRYSVRFAKPVLLPATAGLYVAEGDGGWDLTLRNMAKGYPHLTATVRGL | not soluble |
| VTTMHDVARAAGVSQAAVSYAYNQPHKLSAARRAHIFQVAAELGYAGPNPAGRNLRTGQVGALGLMITDSLRYAFDDPATSQLLKGISEVGELAEVALTLLPCPLESTRVAEGSGVLVRGAVDGFLAYAMPDGHPGMQTAMSRRLPIVVIDGPNPGGLPRVGIRDRQAAKEIAEHVLSLGHRRVGFLVDRLVPDGKGGPVDAARTRAARDHVMKERLAGYASACRKYTVPWSSTVVVEAGGFDYELSRTAVETLLDAGPVTAVIAASDLLALAAIDVAHERGLRVPQDLSVVGFDDIPAARAAGLTTVRQPLVDKGREAAQLLLDIIGGGAGREITLPTELVVRESAGPVTADR | not soluble |
| VVPGDASSVVSVNPAKPLISVCIPMYNNGATIERCLRSILEQEGVEFEIVVVDDDSSDDCAAIAATMLRPGDRLLRNEPRLGLNRNHNKCLEVARGGLIQFVHGDDRLLPGALQTLSRRFEDPSVGMAFAPRRVESDDIKWQQRYGRVHTRFRKLRDRNHGPSLVLQMVLHGAKENWIGEPTAVMFRRQLALDAGGFRTDIYQLVDVDFWLRLMLRSAVCFVPHELSVRRHTAATETTRVMATRRNVLDRQRILTWLIVDPLSPNSVRSAAALWWIPAWLAMIVEVAVLGPQRRTHLKALAPAPFREFAHARRQLPMAD | not soluble |
| VVRRLTSPRLEFEAAAIYEYPEHLRSFLNDLPTRPGVYLFHGESDTMPLYIGKSVNIRSRVLSHLRTPDEAAMLRQSRRISWICTAGEIGALLLEARLIKEQQPLFNKRLRRNRQLCALQLNEKRVDVVYAKEVDFSRAPNLFGLFANRRAALQALQTIADEQKLCYGLLGLEPLSRGRACFRSALKRCAGACCGKESHEEHALRLRQSLERLRVVCWPWQGAVALKEQHPEMTQYHIIQNWLWLGAVNSLEEATTLIRTPAGFDHDGYKILCKPLLSGNYEITELDPANDQRAS | soluble |
| WQGLSSKGDLPQVEITKAFFAKQADEVTLQQADVVLVLQQEDGWLYGERLRDGETGWFPEDFARFI | soluble |
| YAGTSDAPYTGGFMNTFNYRNWELNLNFSYNLGAHVKTDPTYYIADPDPGRNMNRDILDRWTPENKNGKFPALTSLNTNPADYYLFSTRRDLYKSLDIWVKKLSYIRLQNIRLAYHFPSEWLHKLNIGGATVGLEARNLFVFGSSYKNYMDPESMSNLYSTPVPKSVTFNLSLNF | not soluble |
| YKDSPKVLGQTYSSLLIDFTEGFHPNDLGIIVETIKEGGIIIAFSPPIEQWENLKSRWHEELVSEPYTVEDVTGRFFARFMRRTLQAEGIIIFD | not soluble |
